Data on three molecules can be found in publication PMC9841435, “Structural basis of DNA polymerase θ mediated DNA end joining” (Nucleic Acids Research, 2022).

Where two headings read alike, the source gives them in different places.

Data set [1] has as its system T1, LcPol θ-pol.
T1 construct: gene polq; C-terminal polymerase domain (pseudo-exonuclease, thumb, finger, palm), residues 1950-2714 of 2714; synthetic gene in pETsumo2; His6-SUMO tag removed by SENP2; E. coli Rosetta2 (DE3); mainly monomeric
The data set can be described thus: steady-state primer extension, denaturing PAGE of 6-FAM hairpin DNA. Format: biochemical, Lates calcarifer. Particulars: Δloop2_b (ΔV2405–R2448); 1 μM hairpin DNA HP [3,9], 200 nM enzyme, 5 mM MgCl2, 100 mM KCl, pH 7.6, 37 °C; read-out: KM, dATP.

For data set [2], the system named is T1, LcPol θ-pol. The description is as above. Format: biochemical, Lates calcarifer. The note with it: 1 μM hairpin DNA HP [3,9], 1 nM enzyme, 5 mM MgCl2, 100 mM KCl, pH 7.6, 37 °C; read-out: KM, dATP.
For data set [3], the target named is T2, LcPol theta-pol WT (Lates calcarifer, UniProt PDB:8EFK_1 1-864). Briefly: cryo-EM; dGTP, Mg2+; complex Ia, 2.4 A, 11 bp visible; EMSA: 10 nM HP [3,9], 25 mM HEPES pH 8.0, 100 mM KCl, 3 mM DTT, 100 ug/ml BSA, 10% glycerol, 2.5 mM EDTA, 0.01% NP40, on ice 20 min; 6% native PAGE, Tris-glycine; Hill fit. The note with it: protein: recombinant; tags: His6-SUMO, removed by SENP2; primer/template, 20 bp, template 5' overhang 9 nt.

Data set [4] addresses T2, LcPol theta-pol WT. The data set can be described thus: EMSA; 2.5 mM EDTA, no dNTP; EMSA: 10 nM HP [3,9], 25 mM HEPES pH 8.0, 100 mM KCl, 3 mM DTT, 100 ug/ml BSA, 10% glycerol, 2.5 mM EDTA, 0.01% NP40, on ice 20 min; 6% native PAGE, Tris-glycine; Hill fit. The note with it: protein: recombinant; tags: His6-SUMO, removed by SENP2; label: 5' 6-FAM; hairpin, 3-bp stem, 9-nt dT loop, 5' overhang 8 nt.

The next data set concerns the target LcPol theta-pol Δloop1 (Lates calcarifer, UniProt PDB:8EFK_1 1-864, del443-461). The description is as above. Particulars: protein: recombinant; tags: His6-SUMO, removed by SENP2; label: 5' 6-FAM; hairpin, 3-bp stem, 9-nt dT loop, 5' overhang 8 nt.
Data set [5] has as its target LcPol theta-pol K2299A/K2300A/R2306A/R2307A (Lates calcarifer, UniProt PDB:8EFK_1 1-864, K449A;K450A;R456A;R457A). Described as above. The note with it: protein: recombinant; tags: His6-SUMO, removed by SENP2; label: 5' 6-FAM; hairpin, 3-bp stem, 9-nt dT loop, 5' overhang 8 nt.
In data set [6] the target is LcPol theta-pol K2299A/K2300A (Lates calcarifer, UniProt PDB:8EFK_1 1-864, K449A;K450A). Briefly: EMSA; 2.5 mM EDTA; affinity similar to WT; EMSA: 10 nM HP [3,9], 25 mM HEPES pH 8.0, 100 mM KCl, 3 mM DTT, 100 ug/ml BSA, 10% glycerol, 2.5 mM EDTA, 0.01% NP40, on ice 20 min; 6% native PAGE, Tris-glycine; Hill fit. The note with it: protein: recombinant; tags: His6-SUMO, removed by SENP2; label: 5' 6-FAM; hairpin, 3-bp stem, 9-nt dT loop, 5' overhang 8 nt.

Data set [7] concerns the target LcPol theta-pol R2306A/R2307A (Lates calcarifer, UniProt PDB:8EFK_1 1-864, R456A;R457A). The data set is described as above. The note with it: protein: recombinant; tags: His6-SUMO, removed by SENP2; label: 5' 6-FAM; hairpin, 3-bp stem, 9-nt dT loop, 5' overhang 8 nt.
For a further data set, the target named is LcPol theta-pol Δloop2_b (Lates calcarifer, UniProt PDB:8EFK_1 1-864, del555-598). Briefly: EMSA; 2.5 mM EDTA; Kd comparable to WT; EMSA: 10 nM HP [3,9], 25 mM HEPES pH 8.0, 100 mM KCl, 3 mM DTT, 100 ug/ml BSA, 10% glycerol, 2.5 mM EDTA, 0.01% NP40, on ice 20 min; 6% native PAGE, Tris-glycine; Hill fit. The note with it: protein: recombinant; tags: His6-SUMO, removed by SENP2; label: 5' 6-FAM; hairpin, 3-bp stem, 9-nt dT loop, 5' overhang 8 nt.

A further data set has as its target LcPol theta-pol R2448A (Lates calcarifer, UniProt PDB:8EFK_1 1-864, R598A). The data set is described as above. Particulars: protein: recombinant; tags: His6-SUMO, removed by SENP2; label: 5' 6-FAM; hairpin, 3-bp stem, 9-nt dT loop, 5' overhang 8 nt.
The next data set has as its target LcPol theta-pol Δloop2_a (Lates calcarifer, UniProt PDB:8EFK_1 1-864, del552-591). The description is as above. The note with it: protein: recombinant; tags: His6-SUMO, removed by SENP2; label: 5' 6-FAM; hairpin, 3-bp stem, 9-nt dT loop, 5' overhang 8 nt.

T2 sequence (chain, as listed by the source): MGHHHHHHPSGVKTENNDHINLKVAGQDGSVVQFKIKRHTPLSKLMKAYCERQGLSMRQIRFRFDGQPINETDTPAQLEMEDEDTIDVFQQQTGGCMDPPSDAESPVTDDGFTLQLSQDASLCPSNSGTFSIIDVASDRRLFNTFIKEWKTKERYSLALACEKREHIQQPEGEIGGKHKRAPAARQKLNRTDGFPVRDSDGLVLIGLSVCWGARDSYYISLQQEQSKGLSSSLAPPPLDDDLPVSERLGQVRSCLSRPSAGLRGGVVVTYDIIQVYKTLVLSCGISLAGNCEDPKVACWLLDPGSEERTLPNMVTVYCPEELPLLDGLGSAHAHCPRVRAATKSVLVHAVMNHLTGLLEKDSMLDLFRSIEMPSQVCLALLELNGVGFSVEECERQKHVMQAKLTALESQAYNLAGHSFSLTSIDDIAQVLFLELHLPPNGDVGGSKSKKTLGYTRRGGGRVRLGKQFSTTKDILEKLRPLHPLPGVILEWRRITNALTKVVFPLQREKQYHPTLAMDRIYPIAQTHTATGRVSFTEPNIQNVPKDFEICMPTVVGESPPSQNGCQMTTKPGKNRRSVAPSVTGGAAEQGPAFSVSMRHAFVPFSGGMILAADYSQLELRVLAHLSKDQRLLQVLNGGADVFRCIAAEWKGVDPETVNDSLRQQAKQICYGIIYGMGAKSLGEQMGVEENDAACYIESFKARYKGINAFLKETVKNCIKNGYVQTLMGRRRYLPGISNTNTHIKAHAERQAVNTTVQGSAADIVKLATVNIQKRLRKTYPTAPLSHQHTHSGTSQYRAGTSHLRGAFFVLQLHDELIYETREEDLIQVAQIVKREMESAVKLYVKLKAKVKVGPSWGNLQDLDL
Sequence of LcPol theta-pol K2299A/K2300A (chain, as listed by the source K449A;K450A | K2299A K2300A K2299A K2300A): as the sequence (chain, as listed by the source) above, with K449A, K450A counted along it
Sequence of LcPol theta-pol Δloop1 (chain, as listed by the source del443-461 | mutant): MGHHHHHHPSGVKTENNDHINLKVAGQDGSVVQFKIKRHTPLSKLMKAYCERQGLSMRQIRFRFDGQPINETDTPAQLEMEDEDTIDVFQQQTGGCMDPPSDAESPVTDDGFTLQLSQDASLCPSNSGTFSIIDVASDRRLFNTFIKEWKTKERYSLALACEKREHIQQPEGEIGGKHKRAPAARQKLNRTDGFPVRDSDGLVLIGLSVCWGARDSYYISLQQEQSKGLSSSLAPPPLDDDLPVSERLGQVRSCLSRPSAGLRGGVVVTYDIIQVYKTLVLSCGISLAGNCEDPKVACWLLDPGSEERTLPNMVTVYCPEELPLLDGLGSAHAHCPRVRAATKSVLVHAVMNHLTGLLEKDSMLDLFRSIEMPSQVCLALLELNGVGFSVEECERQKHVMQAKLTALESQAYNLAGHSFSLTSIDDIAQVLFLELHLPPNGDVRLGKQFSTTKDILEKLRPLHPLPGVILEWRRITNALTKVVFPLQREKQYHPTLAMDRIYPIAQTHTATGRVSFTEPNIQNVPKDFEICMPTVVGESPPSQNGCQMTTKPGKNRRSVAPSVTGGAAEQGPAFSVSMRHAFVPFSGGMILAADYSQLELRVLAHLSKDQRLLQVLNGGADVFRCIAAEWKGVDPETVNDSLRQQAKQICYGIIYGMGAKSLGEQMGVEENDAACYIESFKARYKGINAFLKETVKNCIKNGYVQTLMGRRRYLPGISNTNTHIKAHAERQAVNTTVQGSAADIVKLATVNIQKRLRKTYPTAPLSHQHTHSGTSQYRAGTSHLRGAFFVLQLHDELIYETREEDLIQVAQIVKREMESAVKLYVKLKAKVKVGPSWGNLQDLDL
Sequence of LcPol theta-pol R2448A (chain, as listed by the source R598A | R2448A R2448A): as the sequence (chain, as listed by the source) above, with R598A counted along it
Sequence of LcPol theta-pol K2299A/K2300A/R2306A/R2307A (chain, as listed by the source with the stated changes): as the sequence (chain, as listed by the source) above, with K449A, K450A, R456A, R457A counted along it
Sequence of LcPol theta-pol Δloop2_b (chain, as listed by the source del555-598 | mutant): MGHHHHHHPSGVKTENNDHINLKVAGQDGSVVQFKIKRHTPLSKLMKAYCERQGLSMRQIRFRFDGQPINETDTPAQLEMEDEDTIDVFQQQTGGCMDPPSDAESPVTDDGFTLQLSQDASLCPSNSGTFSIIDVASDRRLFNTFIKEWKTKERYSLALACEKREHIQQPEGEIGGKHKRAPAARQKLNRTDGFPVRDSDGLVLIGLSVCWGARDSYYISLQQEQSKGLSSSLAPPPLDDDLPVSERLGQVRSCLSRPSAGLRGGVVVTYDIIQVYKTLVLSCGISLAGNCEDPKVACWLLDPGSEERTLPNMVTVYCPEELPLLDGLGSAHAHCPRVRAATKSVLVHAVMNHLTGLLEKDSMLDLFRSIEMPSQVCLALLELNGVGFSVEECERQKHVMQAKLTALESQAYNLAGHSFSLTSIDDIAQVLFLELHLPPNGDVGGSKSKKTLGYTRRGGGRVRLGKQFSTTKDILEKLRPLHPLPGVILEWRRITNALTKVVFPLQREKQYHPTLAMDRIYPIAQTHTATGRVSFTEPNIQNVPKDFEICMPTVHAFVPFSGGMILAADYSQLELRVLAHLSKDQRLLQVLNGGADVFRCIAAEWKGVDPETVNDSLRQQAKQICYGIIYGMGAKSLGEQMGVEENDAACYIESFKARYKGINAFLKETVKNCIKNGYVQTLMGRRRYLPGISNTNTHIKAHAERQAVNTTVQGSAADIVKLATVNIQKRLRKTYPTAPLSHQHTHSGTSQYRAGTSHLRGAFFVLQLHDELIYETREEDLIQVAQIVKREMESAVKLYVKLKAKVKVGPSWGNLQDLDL
Sequence of LcPol theta-pol Δloop2_a (chain, as listed by the source del552-591 | mutant): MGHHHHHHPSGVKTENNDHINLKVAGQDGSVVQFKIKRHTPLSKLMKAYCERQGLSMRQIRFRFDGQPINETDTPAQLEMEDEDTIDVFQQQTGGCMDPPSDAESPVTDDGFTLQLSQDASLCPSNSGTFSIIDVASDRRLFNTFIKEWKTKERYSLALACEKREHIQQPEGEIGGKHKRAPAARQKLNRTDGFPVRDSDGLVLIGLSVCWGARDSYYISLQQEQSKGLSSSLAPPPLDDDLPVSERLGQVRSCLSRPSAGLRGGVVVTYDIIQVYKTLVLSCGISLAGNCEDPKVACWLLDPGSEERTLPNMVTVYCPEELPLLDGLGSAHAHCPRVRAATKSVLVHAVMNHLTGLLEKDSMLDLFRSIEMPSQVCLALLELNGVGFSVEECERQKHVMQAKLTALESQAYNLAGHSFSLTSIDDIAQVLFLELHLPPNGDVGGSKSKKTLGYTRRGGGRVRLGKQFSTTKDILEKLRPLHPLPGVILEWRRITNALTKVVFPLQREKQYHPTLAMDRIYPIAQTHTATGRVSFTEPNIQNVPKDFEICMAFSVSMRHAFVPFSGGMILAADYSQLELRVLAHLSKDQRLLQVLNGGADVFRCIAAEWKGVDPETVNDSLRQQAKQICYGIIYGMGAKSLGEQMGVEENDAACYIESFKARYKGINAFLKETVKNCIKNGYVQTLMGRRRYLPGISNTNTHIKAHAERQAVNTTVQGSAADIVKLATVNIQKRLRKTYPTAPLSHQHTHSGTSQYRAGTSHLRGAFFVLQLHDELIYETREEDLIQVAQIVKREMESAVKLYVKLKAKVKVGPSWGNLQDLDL
Sequence of LcPol theta-pol R2306A/R2307A (chain, as listed by the source R456A;R457A | R2306A R2307A R2306A R2307A): as the sequence (chain, as listed by the source) above, with R456A, R457A counted along it

As for `Nc1ncnc2c1ncn2[C@H]1C[C@H](O)[C@@H](COP(=O)(O)OP(=O)(O)OP(=O)(O)O)O1` [dATP], the Km in the data set with LcPol θ-pol [1] turned out to be 157 µM; with LcPol θ-pol [2], 12 µM.

B1: 20/29 mer dsDNA, ddA-terminated primer (dsDNA)
DNA 1: TGCTGTGAGGCATCCGTAGA
DNA 2: GCAGTCAGCTCTACGGATGCCTCACAGCA
modifications: 3'-terminal dideoxy-A on primer
On to B1, for which the binding result with LcPol theta-pol WT [3] is given as “binds”.
Regarding TTTTTTTTGGCTTTTTTTTTGCC (structured_DNA) [HP [3,9]], the dissociation constant (Kd) was 29 nM with LcPol theta-pol WT [4], 138 nM with LcPol theta-pol Δloop1 and 50 nM in data set [5]. The binding result (in [6]; in data set [7]; in the data set with LcPol theta-pol Δloop2_b; in the data set with LcPol theta-pol R2448A; in the data set with LcPol theta-pol Δloop2_a) was “binds” throughout.
